Measured values as given in patent US20240025965A1 (UNIVERSITEIT TWENTE, published 2024).
Where no end group is shown, it is not given here. membrane = cellular membrane (peptide-display support, peptide attached at its C-terminus via a stable linker); glass slide = glass slide (microarray support, peptide conjugated at its N-terminus via a PEG linker); stable linker = not defined here; PEG linker = not defined here; linker = not defined here; PEG = not defined here

B1: GDSPASSKPISI (peptide)
peptide: GDSPASSKPISI-{linker-membrane}
modifications: reading uncertain
B2: TTVRYYRITYGE (peptide)
peptide: TTVRYYRITYGE-{stable linker-membrane}
modifications: reading uncertain
B3: TNLLVRYSPVKN (peptide)
peptide: TNLLVRYSPVKN-{stable linker-membrane}
modifications: reading uncertain
B4: SIELTNLLVRYS (peptide)
peptide: SIELTNLLVRYS-{stable linker-membrane}
modifications: reading uncertain
B5: AV3 with Y3 replaced by alanine (peptide)
peptide: {glass slide-PEG}-RYARITY
modifications: reading uncertain
B6: AYYRITY (peptide)
peptide: {glass slide-PEG}-AYYRITY
modifications: reading uncertain
notes: also called AV3 with R1 replaced by alanine
B7: RYYRATY (peptide)
peptide: {glass slide-PEG}-RYYRATY
modifications: reading uncertain
notes: also called AV3 with I5 replaced by alanine
B8: RYYAITY (peptide)
peptide: {glass slide-PEG}-RYYAITY
modifications: reading uncertain
notes: also called AV3 with R4 replaced by alanine
B9: RAYRITY (peptide)
peptide: {glass slide-PEG}-RAYRITY
modifications: reading uncertain
notes: also called AV3 with Y2 replaced by alanine
B10: RYYRITA (peptide)
peptide: {glass slide-PEG}-RYYRITA
modifications: reading uncertain
notes: also called AV3 with Y7 replaced by alanine
B11: SGLTEWLRW (peptide)
peptide: {glass slide-PEG linker}-SGLTEWLRW
modifications: reading uncertain
B12: LTEWLRWF (peptide)
peptide: {glass slide-PEG}-LTEWLRWF
modifications: reading uncertain
B13: LTEWLRWFNS (peptide)
peptide: {glass slide-PEG}-LTEWLRWFNS
modifications: reading uncertain
B14: SGLTE (peptide)
peptide: {glass slide-PEG}-SGLTE
modifications: reading uncertain
notes: chain-length variant of AXI-I (positions 1-5); fixed on the array by its N-terminus through a PEG linker
B15: SGLTEWLR (peptide)
peptide: {glass slide-PEG linker}-SGLTEWLR
modifications: reading uncertain
notes: chain-length variant of AXI-I (positions 1-8); fixed on the array by its N-terminus through a PEG linker
B16: EWLRWFNS (peptide)
peptide: {glass slide-PEG}-EWLRWFNS
modifications: reading uncertain
B17: AGLTEWLRWFNS (peptide)
peptide: {glass slide-PEG}-AGLTEWLRWFNS
modifications: reading uncertain
notes: Alanine at position 1 of AXI-I
B18: SGLTAWLRWFNS (peptide)
peptide: {glass slide-PEG}-SGLTAWLRWFNS
modifications: reading uncertain
notes: Alanine at position 5 of AXI-I
B19: SGATEWLRWFNS (peptide)
peptide: {glass slide-PEG}-SGATEWLRWFNS
modifications: reading uncertain
notes: alanine-scan variant of AXI-I; fixed on the array by its N-terminus through a PEG linker; also called AXI-I with L3 replaced by alanine
B20: SGLTEALRWFNS (peptide)
peptide: {glass slide-PEG linker}-SGLTEALRWFNS
modifications: reading uncertain
notes: Alanine at position 6 of AXI-I
B21: SALTEWLRWFNS (peptide)
peptide: {glass slide-PEG}-SALTEWLRWFNS
modifications: reading uncertain
notes: Alanine at position 2 of AXI-I
B22: SGLTEWLAWFNS (peptide)
peptide: {glass slide-PEG linker}-SGLTEWLAWFNS
modifications: reading uncertain
notes: Alanine at position 8 of AXI-I
B23: SGLTEWARWFNS (peptide)
peptide: {glass slide-PEG linker}-SGLTEWARWFNS
modifications: reading uncertain
notes: Alanine at position 7 of AXI-I
B24: SGLAEWLRWFNS (peptide)
peptide: {glass slide-PEG}-SGLAEWLRWFNS
modifications: reading uncertain
notes: Alanine at position 4 of AXI-I
B25: SGLTEWLRAFNS (peptide)
peptide: {glass slide-PEG linker}-SGLTEWLRAFNS
modifications: reading uncertain
notes: Alanine at position 9 of AXI-I
B26: SGLTEWLRWFNA (peptide)
peptide: {glass slide-PEG linker}-SGLTEWLRWFNA
modifications: reading uncertain
notes: Alanine at position 12 of AXI-I
B27: SGLTEWLRWFN (peptide)
peptide: {glass slide-PEG linker}-SGLTEWLRWFN
modifications: reading uncertain
B28: WLRWFNS (peptide)
peptide: {glass slide-PEG linker}-WLRWFNS
modifications: reading uncertain
B29: TEWLRWFNS (peptide)
peptide: {glass slide-PEG linker}-TEWLRWFNS
modifications: reading uncertain
B30: SGLTEW (peptide)
peptide: {glass slide-PEG linker}-SGLTEW
modifications: reading uncertain
notes: chain-length variant of AXI-I (positions 1-6); fixed on the array by its N-terminus through a PEG linker
B31: GLTEWLRWFNS (peptide)
peptide: {glass slide-PEG}-GLTEWLRWFNS
modifications: reading uncertain
B32: GLTEWLRWFN (peptide)
peptide: {glass slide-PEG}-GLTEWLRWFN
modifications: reading uncertain
B33: RWFNS (peptide)
peptide: {glass slide-PEG}-RWFNS
modifications: reading uncertain
notes: chain-length variant of AXI-I (positions 8-12); fixed on the array by its N-terminus through a PEG linker
B34: LRWFNS (peptide)
peptide: {glass slide-PEG}-LRWFNS
modifications: reading uncertain
B35: SGLTEWLRWF (peptide)
peptide: {glass slide-PEG linker}-SGLTEWLRWF
modifications: reading uncertain

Target: T1, α5β1 human recombinant protein (human, UniProt P08648 42-995; P05556 21-728)
T1 construct: Bought from R&D Systems; also called α5β1 receptor; integrin α5β1
T1 sequence (P08648 42-995 limits assumed, chain 1 of 2): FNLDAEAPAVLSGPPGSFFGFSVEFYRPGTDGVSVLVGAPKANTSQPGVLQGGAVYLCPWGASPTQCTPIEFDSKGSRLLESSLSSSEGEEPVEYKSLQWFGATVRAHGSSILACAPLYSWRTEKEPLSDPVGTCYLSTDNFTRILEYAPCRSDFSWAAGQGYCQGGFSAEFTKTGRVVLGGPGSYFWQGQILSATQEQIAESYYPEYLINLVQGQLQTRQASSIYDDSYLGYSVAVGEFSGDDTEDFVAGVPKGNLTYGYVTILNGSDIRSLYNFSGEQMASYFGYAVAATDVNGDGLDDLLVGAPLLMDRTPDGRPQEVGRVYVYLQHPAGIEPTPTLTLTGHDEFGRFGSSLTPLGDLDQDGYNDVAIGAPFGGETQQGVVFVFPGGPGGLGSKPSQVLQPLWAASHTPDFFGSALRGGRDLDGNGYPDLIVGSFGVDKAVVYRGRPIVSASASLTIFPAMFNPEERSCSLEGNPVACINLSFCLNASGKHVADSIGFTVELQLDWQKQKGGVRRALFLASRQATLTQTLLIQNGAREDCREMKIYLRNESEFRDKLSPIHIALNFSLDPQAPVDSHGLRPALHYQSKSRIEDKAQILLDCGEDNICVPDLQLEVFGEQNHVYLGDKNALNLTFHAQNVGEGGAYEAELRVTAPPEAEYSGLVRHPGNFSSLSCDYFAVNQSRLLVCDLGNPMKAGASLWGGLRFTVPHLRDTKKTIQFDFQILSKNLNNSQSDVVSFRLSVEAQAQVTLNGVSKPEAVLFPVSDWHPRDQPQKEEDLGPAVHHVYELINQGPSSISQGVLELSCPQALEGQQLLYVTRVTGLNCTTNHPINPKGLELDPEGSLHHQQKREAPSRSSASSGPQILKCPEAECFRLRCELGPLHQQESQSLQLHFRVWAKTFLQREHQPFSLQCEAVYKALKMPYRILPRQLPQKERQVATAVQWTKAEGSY
T1 sequence (P05556 21-728 limits assumed, chain 2 of 2): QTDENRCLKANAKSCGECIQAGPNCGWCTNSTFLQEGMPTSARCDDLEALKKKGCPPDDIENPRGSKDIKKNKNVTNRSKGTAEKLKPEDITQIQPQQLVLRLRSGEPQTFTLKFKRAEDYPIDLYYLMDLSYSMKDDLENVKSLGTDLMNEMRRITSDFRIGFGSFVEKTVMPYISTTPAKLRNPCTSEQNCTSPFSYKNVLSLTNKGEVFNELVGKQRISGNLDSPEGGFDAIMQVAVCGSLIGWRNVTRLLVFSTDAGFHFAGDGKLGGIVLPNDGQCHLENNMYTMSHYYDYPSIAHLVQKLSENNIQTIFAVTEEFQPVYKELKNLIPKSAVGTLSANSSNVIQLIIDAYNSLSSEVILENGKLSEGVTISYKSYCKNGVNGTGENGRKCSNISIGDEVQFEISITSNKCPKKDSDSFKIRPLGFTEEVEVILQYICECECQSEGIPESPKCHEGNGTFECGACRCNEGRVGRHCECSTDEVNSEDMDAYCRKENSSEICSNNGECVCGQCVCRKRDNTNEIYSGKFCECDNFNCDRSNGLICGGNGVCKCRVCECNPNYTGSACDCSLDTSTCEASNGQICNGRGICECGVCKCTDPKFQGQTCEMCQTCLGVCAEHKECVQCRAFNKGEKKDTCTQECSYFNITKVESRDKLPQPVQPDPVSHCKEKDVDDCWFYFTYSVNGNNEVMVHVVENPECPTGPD
Assay: overlapping peptides on membrane incubated with 5 µg/ml α5β1; bound receptor transferred and detected with anti-alpha5 antibody
Description: Peptides were attached to their c-terminal site using stable linker. […] The peptide-displaying […] membrane was soaked in methanol for 1 minute and rinsed in Tris-buffered saline (TBS) and washed three times. Then, the membrane was blocked with 3% BSA in 0.05% TWEEN®-20 containing TBS (TBST) for 3 hours at room temperature. Then, the membrane was washed for 10 minutes with TB ST and incubated with 5 μg/ml α5β1 human recombinant protein (R&D systems) in 3% BSA in TB ST for 1 hour at room temperature and then overnight at 4° C. Subsequently, the membrane was washed three times with TB ST. Thereafter, the bound receptor to the membrane was transferred to the PVDF membrane. To achieve this, first, the PVDF membrane was soaked in methanol for 1 minute and then blocked with 5% skimmed fat milk for 2 hours. Then, the membrane was incubated with primary anti-alpha5 integrin antibody (Sigma-Aldrich) for overnight in 5% skimmed milk. The membrane was washed three times with TBST and then incubated with anti-rabbit-HRP secondary antibody (Dako), washed and developed with chemiluminescence detection kit.
The domains 9 and 10 of FN were chosen to design peptides, as these domains were reported to be responsible for binding to the α5β1 receptor, as shown with the docking experiments (Nagae et al, 2012 J. Cell Biol. 131-140). The interaction studies were performed against human recombinant integrin α5β1 receptor and the bound proteins were transferred to another membrane and ITGA5 was detected with antibodies. Many sequences appeared to bind to the α5β1 receptor from human and mouse domains, the strongest binding was obtained with 2 sequences from human FN-III domain 10 as follows.

Does B1 bind?
Result: binds

Does B2 bind?
Result: binds

Does B3 bind?
Result: binds

Does B4 bind?
Result: binds

Target: T1, α5β1 human recombinant protein
Assay: peptide microarray incubated with α5β1, anti-α5 detection
Description: (§1) Peptide microarray was prepared by conjugating peptides at their N-terminal to a glass slide using a PEG linker. […] For the binding studies, the peptide array was blocked with 3% BSA in TBST for 2 hours. Then the array slide was washed 5 times in TB ST and subsequently incubated with the target receptor (α5β1, 10 μg/ml dissolved in PBS) for 1 hour at 37° C. The slides were washed with TBST and then incubated with primary antibody (1 μg/ml) against ITGA5 for 1 hour at 37° C. Then slides were washed and incubated with fluorescent dye labeled secondary antibodies for 30 minutes. The slides were washed with TBST and water and then dried and scanned with a microarray scanner to detect binding of the peptides. The enlightened spots were analyzed using ImageJ software. To determine the unspecific binding, a peptide array was incubated with only primary and secondary antibodies without the receptor incubation step. Then, the signal of unspecific binding was subtracted from the total binding to calculate specific binding.
To find out the amino acids responsible for the peptide binding and the most efficient binding peptides, peptide microarrays were developed with alanine replacement and shorter peptides. In addition, a peptide having the sequence […] (SEQ ID NO:11) (AV3-Cys) was developed. For AV3 (RYYRITY (SEQ ID NO:8)), the peptide microarray was incubated with […] receptor, which was captured by anti-α5 and then fluorescent dye labeled secondary antibody. […] Replacement of T6 induced unspecific binding of the peptide to the incubating antibodies (FIG. 13).

Does B5 bind?
Result: no binding

Does B6 bind?
Result: binds

Does B7 bind?
Result: binds

Does B8 bind?
Result: binds

Does B9 bind?
Result: binds

Does B10 bind?
Result: binds

Target: T2, rhIntegrin α11β1 (human, UniProt Q9UKX5 23-1141; P05556 21-728, limits assumed)
T2 construct: Bought from R&D Systems; also called α11β1 receptor; ITGA11 receptor
T2 sequence (Q9UKX5 23-1141 limits assumed, chain 1 of 2): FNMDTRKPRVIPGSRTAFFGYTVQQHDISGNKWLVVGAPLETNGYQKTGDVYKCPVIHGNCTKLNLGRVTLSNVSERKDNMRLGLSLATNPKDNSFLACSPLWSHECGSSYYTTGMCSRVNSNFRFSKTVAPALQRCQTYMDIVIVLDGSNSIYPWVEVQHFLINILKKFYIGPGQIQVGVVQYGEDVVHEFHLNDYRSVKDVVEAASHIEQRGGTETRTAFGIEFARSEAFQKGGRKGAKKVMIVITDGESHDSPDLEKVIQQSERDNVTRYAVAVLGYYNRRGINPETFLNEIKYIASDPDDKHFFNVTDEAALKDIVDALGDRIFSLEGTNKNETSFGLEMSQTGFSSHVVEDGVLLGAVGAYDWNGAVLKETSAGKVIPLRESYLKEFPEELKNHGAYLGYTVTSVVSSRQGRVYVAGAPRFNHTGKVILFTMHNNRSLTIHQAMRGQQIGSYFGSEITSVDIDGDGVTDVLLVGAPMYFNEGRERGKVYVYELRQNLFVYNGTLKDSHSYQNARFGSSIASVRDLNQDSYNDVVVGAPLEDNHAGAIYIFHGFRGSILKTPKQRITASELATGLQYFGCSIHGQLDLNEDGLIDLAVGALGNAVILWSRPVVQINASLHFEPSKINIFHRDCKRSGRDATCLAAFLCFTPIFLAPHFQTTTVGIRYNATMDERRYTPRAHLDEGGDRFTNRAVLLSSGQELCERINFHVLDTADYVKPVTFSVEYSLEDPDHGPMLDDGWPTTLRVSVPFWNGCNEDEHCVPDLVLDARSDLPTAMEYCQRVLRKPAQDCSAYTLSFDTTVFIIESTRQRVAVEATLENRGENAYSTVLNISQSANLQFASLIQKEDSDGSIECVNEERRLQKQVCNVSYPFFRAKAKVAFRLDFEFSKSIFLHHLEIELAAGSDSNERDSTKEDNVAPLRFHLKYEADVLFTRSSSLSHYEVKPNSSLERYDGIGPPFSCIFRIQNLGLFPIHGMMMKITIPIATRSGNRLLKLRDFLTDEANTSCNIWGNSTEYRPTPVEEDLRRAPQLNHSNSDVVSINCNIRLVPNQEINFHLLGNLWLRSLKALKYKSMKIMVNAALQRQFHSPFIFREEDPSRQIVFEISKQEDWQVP
T2 sequence (P05556 21-728 limits assumed, chain 2 of 2): as the sequence (P05556 21-728 limits assumed, chain 2 of 2) above
Assay: peptide microarray: peptide fixed by its N-terminus through a PEG linker, incubated with α11β1 receptor (10 µg/ml), anti-ITGA11 antibody and fluorescent secondary antibody, signal of the antibodies alone subtracted
Description: as §1, with “(α11β1,” for “(α5β1,”, “ITGA11” for “ITGA5”

Does B11 bind?
Result: binds

Does B12 bind?
Result: binds

Does B13 bind?
Result: binds

Does B14 bind?
Result: no binding

Does B15 bind?
Result: no binding

Does B16 bind?
Result: binds

Does B17 bind?
Result: binds

Does B18 bind?
Result: binds

Does B19 bind?
Result: binds

Does B20 bind?
Result: binds

Does B21 bind?
Result: binds

Does B22 bind?
Result: binds

Does B23 bind?
Result: binds

Does B24 bind?
Result: binds

Does B25 bind?
Result: binds

Does B26 bind?
Result: binds

Does B27 bind?
Result: binds

Does B28 bind?
Result: binds

Does B29 bind?
Result: binds

Does B30 bind?
Result: no binding

Does B31 bind?
Result: binds

Does B32 bind?
Result: binds

Does B33 bind?
Result: binds

Does B34 bind?
Result: binds

Does B35 bind?
Result: binds
